Reference: patent publication US20230105029A1 (CHIA TAI TIANQING PHARMACEUTICAL GROUP, published 2023)
Read-outs that look alike come from different tables or passages of the source.

T1: marmoset monkey IL4Rα-his protein (marmoset monkey)
T1 construct: Custom made by Sino biological; no cleavage site stated; also called cal-IL4Rα-his; Cal-IL4Rα
T1 chain: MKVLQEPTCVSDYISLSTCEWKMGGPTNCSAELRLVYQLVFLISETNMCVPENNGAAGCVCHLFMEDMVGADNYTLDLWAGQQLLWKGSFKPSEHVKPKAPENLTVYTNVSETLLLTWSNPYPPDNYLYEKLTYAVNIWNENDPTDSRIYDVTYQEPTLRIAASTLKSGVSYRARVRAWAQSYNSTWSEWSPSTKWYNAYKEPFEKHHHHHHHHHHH


Columns and labels:
[1] = target: T2, recombinant human IL4Rα-his protein (in house made) (human, UniProt P24394 26-232, limits assumed); assay: competitive ELISA: coated human IL4Rα-his, blocked ligand biotin human IL4
T2 construct: also called Human IL4Ra-his

[2] = target: T3, human IL4Rα expressed on 293F-IL4Rα cells (human, UniProt P24394 26-825); assay: flow cytometry, 293F-IL4Rα cells
T3 construct: whole, on cells; also called cell surface human IL4Rα
Procedure: Then, 2×10⁵ cells per well in 96 well-plates were incubated in 100 μL of the anti-IL4Rα antibodies or controls of various concentrations (starting at 80 nM with a 4-fold serial dilution) in FACS buffer for 40 minutes on ice. […] Following an incubation of 40 minutes at 4° C. in dark, cells were washed three times and resuspended in FACS buffer. Fluorescence was measured using a Becton Dickinson FACS Canto II-HTS equipment. Data was analyzed using Graphpad Prism software and EC₅₀ values were reported.

[3] = target: T3, human IL4Rα expressed on 293F-IL4Rα …; assay: flow cytometry on 293F-IL4Rα cells
[4] = target: T1, marmoset monkey IL4Rα-his protein; assay: indirect ELISA on coated cal-IL4Rα-his
[5] = target: T4, cynomolgus monkey IL4Rα-his protein (cynomolgus monkey, UniProt A0A2K5V580 33-239); assay: indirect ELISA, coated cyno IL4Rα-his
T4 construct: Bought protein; also called Cynomolgus IL4Rα; Cyno-IL4Rα-his; not shown: his tag

[6] = target: T2, recombinant human IL4Rα-his protein (in …); assay: SPR (Biacore), antibody captured, IL4Rα-his flowed
[7] = target: T3, human IL4Rα expressed on 293F-IL4Rα …; assay: flow cytometry on 293F-IL4Rα cells, blocked ligand biotin human IL4
[8] = target: T2, recombinant human IL4Rα-his protein (in …); assay: capture ELISA: antibody captured on anti-IgG Fc plate, biotin human IL4Rα-his detected
[9] = target: T2, recombinant human IL4Rα-his protein (in …); assay: competitive ELISA, blocks biotin-IL4Rα-his binding to coated Benchmark (competitor)
Procedure: The ability of the anti-IL4Rα antibodies of the disclosure to block benchmark-human IL4Rα binding was measured in a competitive ELISA assay. Briefly, the benchmark was coated on 96-well micro plates at 2 μg/mL in PBS, 100 μl per well, and incubated overnight at 4° C. The next day, plates were washed with wash buffer (PBS+0.05% w/v Tween-20, PBST), and blocked with 5% w/v non-fatty milk in PBST for 2 hours at 37° C. tiring plate blocking, the anti-IL4Rα antibodies of the disclosure or controls were diluted with biotin labeled human IL4Rα-his proteins (prepared in-house with SEQ ID NO: 57, 0.55 nM in 2.5% w/v non-fatty milk in PBST), starting at 100 nM with a 4-fold serial dilution, and incubated at 25° C. for 40 minutes. After plate washing, the antibody/IL4Rα-his mixtures were added to benchmark coated plates, 100 μl per well. After incubation at 37° C. for 40 minutes, plates were washed using wash buffer. Then the plates were added and incubated with 100 μl/well streptavidin conjugated HRP for 40 minutes at 37° C. to detect biotin-labeled human IL4Rα-his bound to plates. Plates were washed again using wash buffer. Finally, TMB was added and the reaction was stopped using 1M H₂SO₄, and the absorbance was read at 450 nm. Data was analyzed using Graphpad Prism software and IC₅₀ values were reported.

[10] = target: T2, recombinant human IL4Rα-his protein (in …); assay: capture ELISA, biotin-IL4Rα-his
[11] = target: T2, recombinant human IL4Rα-his protein (in …); assay: competitive ELISA, blocks biotin-IL4 binding to coated IL4Rα-his
Procedure: Serially diluted anti-IL4Rα antibodies or the controls (starting at 80 nM with a 4-fold serial dilution) in 2.5% w/v non-fatty milk in PBST, 100 μl per well, were added to the IL4Rα bound plates, and incubated with the human IL4Rα-his proteins at 37° C. for 40 minutes. Plates were washed 4 times using wash buffer, and then added and incubated for 40 minutes at 37° C. with 100 μl/well of 0.56 nM biotin-labeled human IL4 protein (Sino biological inc., Cat #11846-HNAE). Plates were washed again using wash buffer. Thereafter, the plates were added with 100 μl/well of streptavidin conjugated HRP (1:10000 dilution in PBST buffer, Jackson Immunoresearch, Cat #016-030-084) and incubated for 40 minutes at 37° C. Plates were washed again using wash buffer. Finally, TMB was added and the reaction was stopped using 1M H₂SO₄, and the absorbance was read at 450 nm. Data was analyzed using Graphpad Prism software and IC₅₀ values were reported.

[12] = target: T2, recombinant human IL4Rα-his protein (in …); assay: competitive ELISA: antibody mixed with biotin human IL4Rα-his, competitor plate-coated Benchmark
[13] = target: T3, human IL4Rα expressed on 293F-IL4Rα …; assay: flow cytometry, blocks biotin-IL4 binding to 293F-IL4Rα cells
Procedure: Then, 1×10⁵ cells per well in 96 well-plates were incubated in 100 μL of the anti-IL4Rα antibodies or controls of various concentrations (starting at 80 nM with a 4-fold serial dilution) in FACS buffer for 40 minutes on ice. The plates were washed twice with FACS buffer, and added and incubated for 40 minutes at 4° C. in dark with 100 μl/well 1.67 nM biotin-labeled human IL4 protein (Sino biological inc., Cat #11846-HNAE). The plates were washed twice with FACS buffer, and then added and incubated for 40 minutes at 4° C. in dark with 100 μl/well R-Phycoerythrin Streptavidin (1:500 dilution in FACS buffer, Jackson Immunoresearch, Cat #016-110-084). Cells were washed twice and resuspended in FACS buffer. Fluorescence was measured using a Becton Dickinson FACS Canto II-HTS equipment. Data was analyzed using Graphpad Prism software and IC₅₀ values were reported.

[14] = target: human IL4Rα expressed on HEK293T-IL4Rα-STAT6-STAT6LUC-LB2 cells (human, UniProt P24394 26-825); assay: cell-based or functional assay
[15] = target: T1, marmoset monkey IL4Rα-his protein; assay: indirect ELISA, coated cal-IL4Rα-his
[16] = target: T2, recombinant human IL4Rα-his protein (in …); assay: SPR (Biacore), antibody captured, IL4Rα-his flowed; remark: listed apart in the source
[17] = target: T4, cynomolgus monkey IL4Rα-his protein; assay: indirect ELISA on coated cynomolgus IL4Rα-his

Binder	IC50 [1] [nM]	EC50 [2] [nM]	EC50 [3] [nM]	EC50 [4] [nM]	EC50 [5] [nM]	Kd [6] [nM]	IC50 [7] [nM]	EC50 [8] [nM]	IC50 [9] [nM]	EC50 [10] [nM]	IC50 [11] [nM]	IC50 [12] [nM]	IC50 [13] [nM]	Inhibition on IL4 induced STAT6 phosphorylation (IC50, nM) [14] [nM]	Inhibition on IL13 induced STAT6 phosphorylation (IC50, nM) [14] [nM]	EC50 [15] [nM]	Dissociation % [16] [%]	End (RU) [16] [RU]	Kd [16] [nM]	Start (RU) [16] [RU]	further results
huC2C1A1A1-V14 (antibody, human IgG4 S228P, kappa, V domains shown, Humanized, human IgG4/kappa) VH: EVQLVESGGGLVQPGGSLRLSCAASGFTFSTYGMSWVRQAPGKGLVWVATINSNGGSTSYPDSVKGRFTISRDNAKNTLYLQMNSLRAEDTAVYYCARFFRFRNAMDYWGQGTLVTVSS VL: DIQMTQSPSSLSASVGQRVTITCRTSENIYSYLAWYQQKQGKPPRFLIYNAKTLAEGVPSRFSGSGSGTEFTLTITSLQAEDFGVYYCQHYYGPPTWTFGPGTKLEIKR	2.17	0.39	0.39	0.555	0.68	0.642	0.578	0.0616	0.17	0.06	2.17	0.171	0.58	0.64	0.73	0.55	0.8	50.5	< 0.0654	50.1	koff [16]: < 1e-05 s⁻¹; kon [16]: 153000 M⁻¹ s⁻¹; EC50 [17]: 0.677 nM
huC2C1A1A1-V15 (antibody, human IgG4, V domains shown, Humanized, human IgG4/kappa) VH: EVQLVESGGGLVQPGGSLRLSCAASGFTFSTYGMSWVRQAPGKGLVWVATINSNGGSTSYPDSVKGRFTISRDNAKNTLYLQMNSLRAEDTAVYYCARFFRFRNAMDYWGQGTLVTVSS VL: DIQMTQSPSSLSASVGDRVTITCRTSENIYSYLAWYQQKPGKAPKFLVYNAKTLAEGVPSRFSGSGSGTDFTLTISSLQPEDFATYYCQHYYGPPTWTFGQGTKVEIKR	2.03	0.31	0.311	0.412	0.52	0.447	0.502	0.0474	0.16	0.05	2.03	0.159	0.5	0.61	0.6	0.41	0.29	69.2	< 0.0435	69	koff [16]: < 1e-05 s⁻¹; kon [16]: 230000 M⁻¹ s⁻¹; EC50 [17]: 0.517 nM
